Measurements taken from article PMC8280134, “Broadly cross-reactive human antibodies that inhibit genogroup I and II noroviruses” (Nature Communications, 2021).

Legend:
Test in all cases: ELISA; indirect ELISA; VLP coated at 1 µg/mL on 384-well plates at 4 °C overnight, blocked with 5% nonfat dry milk in PBS with 0.05% Tween-20; mAb normalised for antigen-binding sites, from 500 nM with 11 serial dilutions; detection with anti-κ or -λ secondary antibodies
Conditions in all cases: both partners purified
[1] = target: T1, HuNoV GII.6 virus-like particle (Norwalk-like virus …, UniProt Q918A7, strain)
T1 construct: also called GII.6 VLP

[2] = target: T2, HuNoV GII.3 virus-like particle (Norovirus Hu/GII.3/TCH-104/USA/2002 …, UniProt S4VLU9, strain)
T2 construct: also called GII.3 VLP

[3] = target: T3, HuNoV GII.13 virus-like particle (Norovirus Hu/GII.13/VA173/2010/USA, strain)
T3 construct: also called GII.13 VLP
T3 chain: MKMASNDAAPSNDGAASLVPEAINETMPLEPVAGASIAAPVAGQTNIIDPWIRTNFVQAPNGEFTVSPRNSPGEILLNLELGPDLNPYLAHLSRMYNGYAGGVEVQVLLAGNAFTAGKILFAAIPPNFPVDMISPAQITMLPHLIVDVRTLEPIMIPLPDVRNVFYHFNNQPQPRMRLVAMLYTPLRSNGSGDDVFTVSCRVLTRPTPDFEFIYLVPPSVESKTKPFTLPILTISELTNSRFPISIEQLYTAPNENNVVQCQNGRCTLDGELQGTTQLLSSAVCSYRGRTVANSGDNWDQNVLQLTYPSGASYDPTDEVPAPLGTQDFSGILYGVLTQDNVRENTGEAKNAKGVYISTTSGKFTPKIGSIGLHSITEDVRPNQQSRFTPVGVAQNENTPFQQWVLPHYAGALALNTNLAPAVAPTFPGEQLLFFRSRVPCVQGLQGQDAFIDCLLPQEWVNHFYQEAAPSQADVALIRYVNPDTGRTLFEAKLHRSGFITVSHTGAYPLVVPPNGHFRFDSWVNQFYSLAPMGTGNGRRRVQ

[4] = target: T4, HuNoV GII.17 virus-like particle (Norovirus …, strain)
T4 construct: also called GII.17 VLP
T4 chain: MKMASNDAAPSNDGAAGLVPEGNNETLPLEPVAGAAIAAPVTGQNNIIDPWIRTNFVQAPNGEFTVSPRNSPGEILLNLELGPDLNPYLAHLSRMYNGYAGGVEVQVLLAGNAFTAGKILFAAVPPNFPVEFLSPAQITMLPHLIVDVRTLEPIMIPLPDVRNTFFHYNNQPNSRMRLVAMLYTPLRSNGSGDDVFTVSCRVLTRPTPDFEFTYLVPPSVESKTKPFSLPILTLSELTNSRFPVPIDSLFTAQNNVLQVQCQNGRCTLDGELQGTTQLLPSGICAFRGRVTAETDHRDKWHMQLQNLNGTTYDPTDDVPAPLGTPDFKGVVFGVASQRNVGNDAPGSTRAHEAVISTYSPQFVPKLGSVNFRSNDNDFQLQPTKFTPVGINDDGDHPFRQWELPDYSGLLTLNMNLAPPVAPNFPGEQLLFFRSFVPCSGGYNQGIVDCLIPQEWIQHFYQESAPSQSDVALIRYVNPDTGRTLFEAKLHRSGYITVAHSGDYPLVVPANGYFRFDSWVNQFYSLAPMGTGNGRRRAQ

Measured: binding result

B1: NORO-320 IgA (hybridoma-secreted dimeric IgA) (antibody, V domains shown)
VH: QVQLVQSGPEVKKPGSSVKVSCKASGGTVSSYAISWVRQAPGQGLEWMGGIIPIFDTTNYAQKFQGRVTITADESTGTSDMELSSLRSEDTAVYYCARDRVPSYSPSRRFSTKGAMWGKYGMDVWGQGTLVTVSS
VL: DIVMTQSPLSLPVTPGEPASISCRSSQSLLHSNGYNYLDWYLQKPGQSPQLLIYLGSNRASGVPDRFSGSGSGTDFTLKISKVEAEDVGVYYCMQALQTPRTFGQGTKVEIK
notes: also called mAb NORO-320; Hyb dimeric IgA
binds: all assays above
